Assay results: PMC2930196

Biological target: Phospholipid transfer protein (PLTP) in human plasma (human (endogenous in plasma)) (UniProt P55058)
Experiment: co-IP

Chain of UniProt P55058 (P55058 18-493): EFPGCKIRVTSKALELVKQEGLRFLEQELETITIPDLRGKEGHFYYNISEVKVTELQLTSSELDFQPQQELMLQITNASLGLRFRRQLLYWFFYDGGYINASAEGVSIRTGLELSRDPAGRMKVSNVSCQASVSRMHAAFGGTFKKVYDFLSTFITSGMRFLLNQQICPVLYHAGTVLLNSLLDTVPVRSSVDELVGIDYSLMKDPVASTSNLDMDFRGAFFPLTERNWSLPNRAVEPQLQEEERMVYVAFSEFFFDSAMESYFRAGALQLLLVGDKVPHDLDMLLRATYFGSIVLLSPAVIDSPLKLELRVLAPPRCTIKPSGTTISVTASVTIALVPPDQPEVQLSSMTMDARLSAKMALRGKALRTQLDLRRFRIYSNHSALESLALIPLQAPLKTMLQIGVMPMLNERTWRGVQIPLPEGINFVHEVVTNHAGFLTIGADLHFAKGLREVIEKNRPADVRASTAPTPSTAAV

molar ratio of clusterin, PLTP and apoA-I in the isolated PLTP complexes (ELISA): 5
Substance: Clusterin (apoJ) in human plasma (natural protein)
